The values below come from PMC6928210 (Scientific Reports, 2019).

What is called Km is the substrate concentration at which the rate is half of its maximum. By kcat/Km is commonly meant the second-order rate constant that governs catalysis at low substrate concentration.

Data set [1] deals with T1, AtSHMT4 (Arabidopsis thaliana, UniProt O23254).
T1 construct: The open reading frames coding for AtSHMT2 41–517 fragment and full-length AtSHMT4 were amplified; His6 (N, cleaved yes); made in house; host or cells: E. coli BL21 Gold
T1 sequence (O23254 1-471): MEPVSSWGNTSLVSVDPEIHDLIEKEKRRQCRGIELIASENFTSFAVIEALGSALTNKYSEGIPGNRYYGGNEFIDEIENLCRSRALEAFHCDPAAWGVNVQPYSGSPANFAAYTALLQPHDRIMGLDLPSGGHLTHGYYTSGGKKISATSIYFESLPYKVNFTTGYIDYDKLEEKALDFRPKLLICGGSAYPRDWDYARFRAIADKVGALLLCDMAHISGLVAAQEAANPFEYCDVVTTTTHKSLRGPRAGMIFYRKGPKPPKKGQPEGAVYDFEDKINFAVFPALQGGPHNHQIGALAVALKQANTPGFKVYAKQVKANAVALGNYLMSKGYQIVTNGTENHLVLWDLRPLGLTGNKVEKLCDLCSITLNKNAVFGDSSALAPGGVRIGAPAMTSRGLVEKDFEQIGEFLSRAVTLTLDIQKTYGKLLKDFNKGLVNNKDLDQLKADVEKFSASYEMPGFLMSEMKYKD
Nature of the data set: SHMT forward reaction (serine + THF), coupled assay, initial velocity. Conditions: read-out: KM THF, 30 °C. It is filed as biochemical. As for the experimental part: (§1) Figure 2 Dependence of AtSHMT2 and AtSHMT4 activity on pH. The initial velocity of the SHMT forward reaction was measured at different pH values with AtSHMT2 and AtSHMT4 (0.2 μM) using a fixed concentration of one substrate while varying the concentration of the other substrate. The fixed L-serine concentration was saturating. […] All experimental points are the average ± standard deviation of three independent measurements. […] Reactions were carried out at 30 °C.
(§2) Activities were measured at different pH values (6.0, 7.0, 8.5 and 9.5). For pH 6.0, 7.0 and 8.5, the assays were performed in 20 mM phosphate buffer. Measurements at pH 9.5 were performed in a mixture of 50 mM MES, 50 mM HEPES, and 50 mM CHES and the final pH was adjusted with KOH.

Data set [2] concerns the target T2, AtSHMT2 (Arabidopsis thaliana, UniProt Q94C74).
T2 construct: the protein N-truncated at E41; The open reading frames coding for AtSHMT2 41–517 fragment; His6 (N, cleaved yes); made in house; host or cells: E. coli BL21 Gold
T2 sequence (Q94C74 41-517): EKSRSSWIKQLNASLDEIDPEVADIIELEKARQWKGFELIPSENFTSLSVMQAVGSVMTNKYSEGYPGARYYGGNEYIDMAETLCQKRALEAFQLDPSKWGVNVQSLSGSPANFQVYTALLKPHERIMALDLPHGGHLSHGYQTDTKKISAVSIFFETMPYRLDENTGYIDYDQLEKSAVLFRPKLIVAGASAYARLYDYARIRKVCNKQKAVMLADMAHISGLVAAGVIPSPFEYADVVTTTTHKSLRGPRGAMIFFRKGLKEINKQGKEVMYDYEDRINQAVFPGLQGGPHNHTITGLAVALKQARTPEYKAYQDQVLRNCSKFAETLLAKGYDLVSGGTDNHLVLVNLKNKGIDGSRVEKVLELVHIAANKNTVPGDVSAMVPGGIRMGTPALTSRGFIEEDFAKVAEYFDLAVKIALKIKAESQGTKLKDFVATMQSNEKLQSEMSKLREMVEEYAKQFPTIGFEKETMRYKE
The description is as above. It is filed as biochemical. The note with it: read-out: KM THF; AtSHMT2, pH 6.5, 30 mM L-serine fixed, 30 °C. The procedure:
as §1, §2

Data set [3] relates to AtSHMT3. Further details: method as in PMID 20518745. Conditions: read-out: KM for THF; cited from earlier work.
In data set [4] the target is hcSHMT. Conditions: cited from earlier work.
The target in data set [5] is T1, AtSHMT4. Nature of the data set: Competitive binding assay vs 5-formyl-THF, quinonoid intermediate absorbance. The note with it: AtSHMT4, 20 mM KPi pH 7.3, 30 °C, glycine 10 mM, 5-formyl-THF varied; read-out: Ki (inhibition constant, antifolate binding to the enzyme-glycine complex). From the text: (§3) In this system, the obtained Ki values refer to binding of the antifolates to the enzyme-glycine complex.
(§4) Secondary plots of slopes as functions of antifolate concentrations were obtained from fitting of inhibition data (Fig. S2). Intercept on the X-axis gives an estimate of the inhibition constant (Ki) related to antifolate binding to the enzyme-glycine complex. Since it is known that the mitochondrial matrix has an alkaline pH (pH 8[68]) as compared to the cytosol (pH 7.3[68]), inhibition measurements were performed in 20 mM KPi buffer at pH 8.0 for AtSHMT2 and pH 7.3 for AtSHMT4 at 30 °C. […] Units of slopes are μM.
(§5) Inhibition assays were performed using 5 μM enzyme solutions. All assays were carried out at 30 °C in 20 mM KPi buffer at either pH 8.0, in the case of AtSHMT2, or pH 7.3 in the case of AtSHMT4. Methotrexate was dissolved in pure DMSO.
(§6) The intermediate develops when both ligands bind to SHMT, forming an enzyme-glycine-folate ternary complex. […] Data were analyzed to obtain estimates of the dissociation constant (Kd) and αKd (in the presence of a saturating concentration of the other ligand) for both ligands, as reported in[31].
(§7) The obtained data were used to produce double reciprocal plots and fitted to linear equations. […] Fitting of data was performed with the software PRISM (GraphPad, La Jolla, CA, USA). All experiments were performed in triplicate using a Hewlett-Packard 8453 diode-array spectrophotometer (Agilent Technologies, Santa Clara, CA).
(§8) Absorbance at 505 nm (AtSHMT2) or 500 nm (AtSHMT4) from the quinonoid intermediate formed
(§9) measured at equilibrium. Right-side charts show double reciprocal plots of data shown in left-side panels ﬁtted to a […]

The target of data set [6] is T2, AtSHMT2. Described as above. Conditions: AtSHMT2, 20 mM KPi pH 8.0, 30 °C, glycine 10 mM, 5-formyl-THF varied; read-out: Ki (inhibition constant, antifolate binding to the enzyme-glycine complex).
Description: as §3, §4, §5, §6, §7, §8, §9

On the set-up of data set [7]: method as in PMID 9067281. Conditions: PTX (or its polyglutamylated forms); cited from earlier work.
Substrate in data set [8]: N[C@@H](CO)C(=O)O
In words: purified protein, by the assay type. The note with it: 30 °C. The data set is classed as biochemical, Arabidopsis thaliana.

The mark [9] stands for this setting: other: AtSHMT4, pH 6.5, 30 µM THF fixed, pH 6.5.
Where [10] appears, read: other: AtSHMT4, pH 7, 30 µM THF fixed, pH 7.0.
[11] abbreviates: other: AtSHMT4, pH 8, 50 µM THF fixed, pH 8.0.
The mark [12] stands for this setting: other: AtSHMT4, pH 8.5, 80 µM THF fixed, pH 8.5.
The mark [13] stands for this setting: other: AtSHMT4, pH 9.5, 100 µM THF fixed, pH 9.5.
Setting [14] is: other: AtSHMT2, pH 6.5, 180 µM THF fixed, pH 6.5.
Where [15] appears, read: other: AtSHMT2, pH 7, 180 µM THF fixed, pH 7.0.
The mark [16] stands for this setting: other: AtSHMT2, pH 8, 180 µM THF fixed, pH 8.0.
[17] abbreviates: other: AtSHMT2, pH 8.5, 180 µM THF fixed, pH 8.5.
Setting [18] is: other: AtSHMT2, pH 9.5, 180 µM THF fixed, pH 9.5.

Several values for one entry are separate records, joined by “and”; a condition that tells them apart may be missing. Equal values may be shown once. Read-outs that look alike come from different tables or passages of the source.

On to tetrahydrofolate [THF], for which the Km in data set [1] (AtSHMT4, pH 6.5, 30 mM L-serine fixed) was 7.87 ± 1.62 µM; in data set [1] (AtSHMT4, pH 7, 30 mM L-serine fixed), 15 ± 1.87 µM; in data set [1] (AtSHMT4, pH 8, 30 mM L-serine fixed), 23.8 ± 3.99 µM; in data set [1] (AtSHMT4, pH 8.5, 30 mM L-serine fixed), 33.8 ± 5.63 µM; in data set [2], 83.6 ± 8.1 µM; in data set [3] it was 218 µM.
In the case of `CN(Cc1cnc2nc(N)nc(N)c2n1)c1ccc(C(=O)N[C@@H](CCC(=O)O)C(=O)O)cc1` [MTX, methotrexate], the Ki in data set [4] (ref Paiardini et al.[45], read-out: KiMTX (apparent inhibition constant)) is 201 µM; in data set [5], 179 µM; in data set [6], 270 µM.
Regarding `Nc1nc2[nH]cc(CCc3ccc(C(=O)N[C@@H](CCC(=O)O)C(=O)O)cc3)c2c(=O)[nH]1` [PTX, pemetrexed], the Ki in data set [4] (ref Daidone et al.[26], read-out: KiPTX (inhibition constant)) is 19.1 µM; in data set [5] it was 95 µM and 95.1 µM; in data set [6], 119 µM. The Intracellular concentration in data set [7] was 10 to 30 µM.

B1: AtSHMT4 (Arabidopsis thaliana) (protein)
chain: MEPVSSWGNTSLVSVDPEIHDLIEKEKRRQCRGIELIASENFTSFAVIEALGSALTNKYSEGIPGNRYYGGNEFIDEIENLCRSRALEAFHCDPAAWGVNVQPYSGSPANFAAYTALLQPHDRIMGLDLPSGGHLTHGYYTSGGKKISATSIYFESLPYKVNFTTGYIDYDKLEEKALDFRPKLLICGGSAYPRDWDYARFRAIADKVGALLLCDMAHISGLVAAQEAANPFEYCDVVTTTTHKSLRGPRAGMIFYRKGPKPPKKGQPEGAVYDFEDKINFAVFPALQGGPHNHQIGALAVALKQANTPGFKVYAKQVKANAVALGNYLMSKGYQIVTNGTENHLVLWDLRPLGLTGNKVEKLCDLCSITLNKNAVFGDSSALAPGGVRIGAPAMTSRGLVEKDFEQIGEFLSRAVTLTLDIQKTYGKLLKDFNKGLVNNKDLDQLKADVEKFSASYEMPGFLMSEMKYKD
notes: The open reading frames coding for AtSHMT2 41–517 fragment and full-length AtSHMT4 were amplified; His6 (N, cleaved yes); made in house; host or cells: E. coli BL21 Gold
As for B1, the Km was 2560 ± 260 µM in data set [8] (setting [9]); 540 ± 50 µM in data set [8] (setting [10]); 300 ± 20 µM in data set [8] (setting [11]); 240 ± 20 µM in data set [8] (setting [12]); 200 ± 20 µM in data set [8] (setting [13]). The kcat/Km in data set [8] (setting [9]) amounted to 4630 M⁻¹ s⁻¹; in data set [8] (setting [10]), 30000 M⁻¹ s⁻¹; in data set [8] (setting [11]), 57900 M⁻¹ s⁻¹; in data set [8] (setting [12]), 81500 M⁻¹ s⁻¹; in data set [8] (setting [13]), 90800 M⁻¹ s⁻¹.

B2: AtSHMT2 (Arabidopsis thaliana) (protein)
chain: EKSRSSWIKQLNASLDEIDPEVADIIELEKARQWKGFELIPSENFTSLSVMQAVGSVMTNKYSEGYPGARYYGGNEYIDMAETLCQKRALEAFQLDPSKWGVNVQSLSGSPANFQVYTALLKPHERIMALDLPHGGHLSHGYQTDTKKISAVSIFFETMPYRLDENTGYIDYDQLEKSAVLFRPKLIVAGASAYARLYDYARIRKVCNKQKAVMLADMAHISGLVAAGVIPSPFEYADVVTTTTHKSLRGPRGAMIFFRKGLKEINKQGKEVMYDYEDRINQAVFPGLQGGPHNHTITGLAVALKQARTPEYKAYQDQVLRNCSKFAETLLAKGYDLVSGGTDNHLVLVNLKNKGIDGSRVEKVLELVHIAANKNTVPGDVSAMVPGGIRMGTPALTSRGFIEEDFAKVAEYFDLAVKIALKIKAESQGTKLKDFVATMQSNEKLQSEMSKLREMVEEYAKQFPTIGFEKETMRYKE
notes: the protein N-truncated at E41; The open reading frames coding for AtSHMT2 41–517 fragment; His6 (N, cleaved yes); made in house; host or cells: E. coli BL21 Gold
B2: the Km in data set [8] (setting [14]) was determined as 11650 ± 2030 µM; in data set [8] (setting [15]) it was 8050 ± 1360 µM; in data set [8] (setting [16]), 2860 ± 300 µM; in data set [8] (setting [17]) it was 1780 ± 220 µM; in data set [8] (setting [18]), 710 ± 90 µM. For the same molecule, the kcat/Km was found to be 450 M⁻¹ s⁻¹ in data set [8] (setting [14]); 1010 M⁻¹ s⁻¹ in data set [8] (setting [15]); 4530 M⁻¹ s⁻¹ in data set [8] (setting [16]); 11600 M⁻¹ s⁻¹ in data set [8] (setting [17]); 30700 M⁻¹ s⁻¹ in data set [8] (setting [18]).
